Measurements: doi:10.1101/2025.11.06.687086 (bioRxiv, 2025)

How the values were obtained:
[1] = molecular target: T1, A/Solomon Islands/3/2006 (H1N1) HA (Influenza A virus A/Solomon …, strain); experiment: ELISA; details: one partner purified
A/USSR/90/1977 (H1N1) HA = molecular target: T2, A/USSR/90/1977 (H1N1) HA (Influenza A virus A/USSR/90/1977 (H1N1), UniProt P03453, strain); experiment: ELISA; details: one partner purified
T2 construct: source: bought: Sino Biological

[2] = molecular target: T3, A/Taiwan/01/1986 (H1N1) HA (Influenza A virus A/Taiwan/1/1986 (H1N1), UniProt F5CU03, strain); experiment: ELISA; details: one partner purified
T3 construct: source: bought: Sino Biological

[3] = molecular target: A/California/07/2009 (H1N1) HA (Influenza A virus A/California/07/2009 …, UniProt C3W5X2, strain); experiment: ELISA; details: one partner purified
[4] = molecular target: T4, A/Japan/305/1957 (H2N2) HA (Influenza A virus A/Japan/305/1957 …, UniProt P03451, strain); experiment: ELISA; details: one partner purified
T4 construct: source: Sf9, baculovirus, purified from the supernatant (Ni Sepharose excel, SEC)

[5] = molecular target: A/northern pintail/WA/40964/2014 (H5N8) HA (influenza A virus A/northern …, UniProt A0A0C4WPH5, strain); experiment: ELISA; details: one partner purified
[6] = molecular target: T5, A/Michigan/45/2015 (H1N1) HA (Influenza A virus A/Michigan/45/2015 …, UniProt A0A1J0CXU0, strain); experiment: ELISA; details: one partner purified
[7] = molecular target: A/Beijing/262/1995 (H1N1) HA (Influenza A virus A/Beijing/262/1995 …, UniProt B4UPF7, strain); experiment: ELISA; details: one partner purified
[8] = molecular target: T5, A/Michigan/45/2015 (H1N1) HA; experiment: BLI; details: both partners purified
[9] = molecular target: T1, A/Solomon Islands/3/2006 (H1N1) HA; experiment: cryo-EM structure; details: both partners purified

Measured: binding result

B1: HB31 IgG (antibody, V domains shown)
VH: EVQLLESGGGLVQPGGSLRLSCTVSGFTSSNYDMSWVRQAPGKGLEWVSGISGTGRDTYYADSVKGRFTISRDNSKNTLSLQMNSLRADDTAVYFCARDRPVLRYFDWQPYGLDVWGKGTTVTVSS
VL: QSALTQPPSASGSPGQSVTISCTGTSSDVGGYNYVSWYQQYPSKAPKLMIYEVSKRPSGVPDRFSGSKSGNTASLTVSGLQAEDEADYYCNSYAGSNLYVFGTGTKVTVL
binds: [1] | A/USSR/90/1977 (H1N1) HA | [2] | [3] | [4] | [5] | [6] | [7]

B2: HB34 Fab (Fab, V domains shown)
VH: EVQLLESGGGLVQPGGSLRLSCTVSGFTSSNYDMSWVRQAPGKGLEWVSGISGTGRDTYYADSVKGRFTISRDNSKNTLSLQMNSLRADDTAVYFCARDRPVLRYFDWQPYGLDVWGKGTTVTVSS
VL: QSALTQPASVSGSPGQSITISCTGTSSDVGSYNLVSWYQQHPGKAPKLMIYEGSQRPSGVSNRFSGSKSGNTASLTISGLQAEDEADYYCCSYASSTSYVFGTGTKVTVL
binds: [8] | [9]

B3: HB31 Fab (Fab, V domains shown)
VH: EVQLLESGGGLVQPGGSLRLSCTVSGFTSSNYDMSWVRQAPGKGLEWVSGISGTGRDTYYADSVKGRFTISRDNSKNTLSLQMNSLRADDTAVYFCARDRPVLRYFDWQPYGLDVWGKGTTVTVSS
VL: QSALTQPPSASGSPGQSVTISCTGTSSDVGGYNYVSWYQQYPSKAPKLMIYEVSKRPSGVPDRFSGSKSGNTASLTVSGLQAEDEADYYCNSYAGSNLYVFGTGTKVTVL
binds: [8] | [9]

B4: HB34 IgG (antibody, V domains shown)
VH: EVQLLESGGGLVQPGGSLRLSCTVSGFTSSNYDMSWVRQAPGKGLEWVSGISGTGRDTYYADSVKGRFTISRDNSKNTLSLQMNSLRADDTAVYFCARDRPVLRYFDWQPYGLDVWGKGTTVTVSS
VL: QSALTQPASVSGSPGQSITISCTGTSSDVGSYNLVSWYQQHPGKAPKLMIYEGSQRPSGVSNRFSGSKSGNTASLTISGLQAEDEADYYCCSYASSTSYVFGTGTKVTVL
binds: [1] | A/USSR/90/1977 (H1N1) HA | [2] | [3] | [4] | [5] | [6] | [7]

B5: FISW84 Fab (Fab, V domains shown)
VH: EVQLLESGGGLVQPGGSLRLSCAASGFTFSSYGMAWVRQAPGKGLEWVSFISATGLSTYFADSVKGRFTISRDTTKNTLYLQMNSLRADDTAVYFCARMRRTMIAFGGNDFWGQGTLVTVSS
VL: EVVMTQSPATLSVSPGEGATLSCRASQSVNTNVAWYQQKPGQAPRLLIYGASTRATGIPARFSGSGSGTEFTLTISTLQSEDFAVYYCQQYSNWPPITFGQGTRLEIK
notes: also called anchor Fab FISW84
binds: [8]

B6: HB315 IgG (antibody, V domains shown)
VH: EVQLLESGGGLAQPGGSLRLSCTASGFTFSNFAMNWVRQAPGKGLEWVSFINSGSGSTYYADSVKGRFTISRDNSENTLFLQMNSLRAEDTAVYYCAKDLGRAIFGLVIPEGAFDIWGQGTMVTVSS
VL: EIVMTQSPSSLSASVGDRVTITCRASQSINNHLNWYQQKPGKAPKLLIYAASSLQSGVPSRFSGSGSGTDFTLTISSLQPADFATYHCQQSYGVPLTFGQGTKVEIK
binds: [1] | A/USSR/90/1977 (H1N1) HA | [2] | [3] | [4] | [5] | [6] | [7]

B7: HB315 Fab (Fab, V domains shown)
VH: EVQLLESGGGLAQPGGSLRLSCTASGFTFSNFAMNWVRQAPGKGLEWVSFINSGSGSTYYADSVKGRFTISRDNSENTLFLQMNSLRAEDTAVYYCAKDLGRAIFGLVIPEGAFDIWGQGTMVTVSS
VL: EIVMTQSPSSLSASVGDRVTITCRASQSINNHLNWYQQKPGKAPKLLIYAASSLQSGVPSRFSGSGSGTDFTLTISSLQPADFATYHCQQSYGVPLTFGQGTKVEIK
binds: [8] | [9]

B8: CR9114 Fab (Fab, V domains shown)
VH: QVQLVQSGAEVKKPGSSVKVSCKSSGGTSNNYAISWVRQAPGQGLDWMGGISPIFGSTAYAQKFQGRVTISADIFSNTAYMELNSLTSEDTAVYFCARHGNYYYYSGMDVWGQGTTVTVSS
VL: QSALTQPPAVSGTPGQRVTISCSGSDSNIGRRSVNWYQQFPGTAPKLLIYSNDQRPSVVPDRFSGSKSGTSASLAISGLQSEDEAEYYCAAWDDSLKGAVFGGGTQLTVL
binds: [8]
